Assay results from article PMC13581290, “A systematic interactome of Saccharomyces cerevisiae SET1C expands its functional landscape and identifies candidate regulatory connections” (eLife, 2026).

Biological target: T1, reconstituted SET1C (FLAG-Set1 and the seven other untagged subunits) (S. cerevisiae, UniProt P38827 1-1080; P39706 1-426; P36104 1-329; P38123 1-315; P43132 1-505; Q03323 …)
T1 construct: Set1, S. cerevisiae, full length (Set1 FL); Swd1, S. cerevisiae, untagged subunit; Swd2, S. cerevisiae, untagged subunit; Swd3, S. cerevisiae, untagged subunit; Bre2, S. cerevisiae, untagged subunit; Sdc1, S. cerevisiae, untagged subunit; Spp1, S. cerevisiae, untagged subunit; Shg1, S. cerevisiae, untagged subunit; The seven subunits are named in the introduction; also called full-length SET1C; …
Experiment: pull-down; GST-tagged Snf2 fragments (250 nM) on glutathione-Sepharose 4B with SET1C or C762SET1C (25 nM), BSA 0.2 mg/ml; 20 mM Tris-Cl pH 7.9, 150 mM NaCl, 0.2 mM EDTA, 20% glycerol, 0.1% NP-40; 4°C, 3 hr; immunoblotting
Settings: both partners purified

B1: GST-Snf2C-AT-hook (domain or fragment, S. cerevisiae, UniProt P22082 1384-1547, looked up)
chain: ARKQRTKKEDKSEAIDGNGEIKGENIDADNDGPRINNISAEDRADTDLAMNDDDFLSKKRKAGRPRGRPKKVKLEGSENSEPPALESSPVTGDNSPSEDFMDIPKPRTAGKTSVKSARTSTRGRGRGRGRGRGRGRGRGRPPKARNGLDYVRTPAAATSPIDIR
notes: Snf2, S. cerevisiae, AT-hook region 1384-1547; also called Snf2-AT-hook; GST-Snf2-AT-hook; source: E. coli BL21, purified
B1: binds.
